In patent US20220306739A1:

Molecular target: T cell receptor gamma variable 9 (TRGV9) on human γδ T cells (human) (UniProt Q99603)
Test: γδ T-cell binding (γδ-enriched T cells), readout 'Signal'

EC50: 0.56 nM
B1: VG9B2, chimera human IgG1 mAb (silent Fc) of mouse anti-human TCR Vγ9 clone B3 (antibody, V domains shown)
VH: QGQMQQSGAELVKPGASVKLSCKTSGFTFSSNYISWLKQKPGQSLEWIAWIHGGTGGIGYNQKFTGKAQLTVDTSSTTAYMQFSSLTTEDSAIYYCARRGYGAWFAYWGQGTLVTVSA
VL: DIQMTQSPASLSASVGETVTITCRASENIHNYLAWYQQKQGKSPQLLVYNAKTLADGVPSRFSGSGSGTQYSLKINSLQPEDFGNYYCQHFWSYPLTFGAGTKLELK
